Patent US5453362, “Eukaryotic transcription protein; host cell factor” (Tularik Inc.)

Legend:
[1] = molecular target: GST-VP16 with insect extract, no Oct-1 POU (Herpes simplex virus, UniProt P06492 P06492:5-411); assay: EMSA; no specific complex with SL2 or Sf9 extract without Oct-1 POU; conditions: tags: GST; label: 32P end
[2] = molecular target: VP16-induced complex: Oct-1 POU domain + GST-VP16 + partially purified human HCF (Homo sapiens / Herpes simplex virus, UniProt P14859;P06492;P51610 P14859:280-438,P06492:5-411,P51610:2-2035); assay: EMSA; 50 mM KCl, pH 7.9, 1 mM EDTA, 30 C; complex disrupted by anti-HCF sera (FIG. 4, WGA fraction); conditions: tags: GST on VP16; Oct-1 POU recombinant from E. coli, GST removed by thrombin; label: 32P end
VP16-induced complex: Oct-1 POU domain + GST-VP16 + partially purified human HCF, sequence (P14859 280-438, chain 1 of 3): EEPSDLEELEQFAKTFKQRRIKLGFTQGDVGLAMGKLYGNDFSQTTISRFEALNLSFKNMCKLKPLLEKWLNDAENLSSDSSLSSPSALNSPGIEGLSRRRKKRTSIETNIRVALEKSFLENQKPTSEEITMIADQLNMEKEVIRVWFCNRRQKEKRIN
VP16-induced complex: Oct-1 POU domain + GST-VP16 + partially purified human HCF, sequence (P06492 5-411, chain 2 of 3): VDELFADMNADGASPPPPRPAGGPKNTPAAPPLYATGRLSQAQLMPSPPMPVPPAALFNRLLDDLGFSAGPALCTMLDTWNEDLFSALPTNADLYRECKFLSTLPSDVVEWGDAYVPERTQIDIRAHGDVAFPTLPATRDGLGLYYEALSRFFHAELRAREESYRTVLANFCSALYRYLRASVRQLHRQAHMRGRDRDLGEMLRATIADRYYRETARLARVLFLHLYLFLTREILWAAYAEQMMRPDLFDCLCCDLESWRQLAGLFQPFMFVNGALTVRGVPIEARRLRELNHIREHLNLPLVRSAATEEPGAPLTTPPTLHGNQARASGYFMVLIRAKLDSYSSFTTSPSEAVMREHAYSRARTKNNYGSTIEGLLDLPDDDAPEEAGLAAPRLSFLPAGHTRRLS
VP16-induced complex: Oct-1 POU domain + GST-VP16 + partially purified human HCF, sequence (P51610 2-2035, chain 3 of 3): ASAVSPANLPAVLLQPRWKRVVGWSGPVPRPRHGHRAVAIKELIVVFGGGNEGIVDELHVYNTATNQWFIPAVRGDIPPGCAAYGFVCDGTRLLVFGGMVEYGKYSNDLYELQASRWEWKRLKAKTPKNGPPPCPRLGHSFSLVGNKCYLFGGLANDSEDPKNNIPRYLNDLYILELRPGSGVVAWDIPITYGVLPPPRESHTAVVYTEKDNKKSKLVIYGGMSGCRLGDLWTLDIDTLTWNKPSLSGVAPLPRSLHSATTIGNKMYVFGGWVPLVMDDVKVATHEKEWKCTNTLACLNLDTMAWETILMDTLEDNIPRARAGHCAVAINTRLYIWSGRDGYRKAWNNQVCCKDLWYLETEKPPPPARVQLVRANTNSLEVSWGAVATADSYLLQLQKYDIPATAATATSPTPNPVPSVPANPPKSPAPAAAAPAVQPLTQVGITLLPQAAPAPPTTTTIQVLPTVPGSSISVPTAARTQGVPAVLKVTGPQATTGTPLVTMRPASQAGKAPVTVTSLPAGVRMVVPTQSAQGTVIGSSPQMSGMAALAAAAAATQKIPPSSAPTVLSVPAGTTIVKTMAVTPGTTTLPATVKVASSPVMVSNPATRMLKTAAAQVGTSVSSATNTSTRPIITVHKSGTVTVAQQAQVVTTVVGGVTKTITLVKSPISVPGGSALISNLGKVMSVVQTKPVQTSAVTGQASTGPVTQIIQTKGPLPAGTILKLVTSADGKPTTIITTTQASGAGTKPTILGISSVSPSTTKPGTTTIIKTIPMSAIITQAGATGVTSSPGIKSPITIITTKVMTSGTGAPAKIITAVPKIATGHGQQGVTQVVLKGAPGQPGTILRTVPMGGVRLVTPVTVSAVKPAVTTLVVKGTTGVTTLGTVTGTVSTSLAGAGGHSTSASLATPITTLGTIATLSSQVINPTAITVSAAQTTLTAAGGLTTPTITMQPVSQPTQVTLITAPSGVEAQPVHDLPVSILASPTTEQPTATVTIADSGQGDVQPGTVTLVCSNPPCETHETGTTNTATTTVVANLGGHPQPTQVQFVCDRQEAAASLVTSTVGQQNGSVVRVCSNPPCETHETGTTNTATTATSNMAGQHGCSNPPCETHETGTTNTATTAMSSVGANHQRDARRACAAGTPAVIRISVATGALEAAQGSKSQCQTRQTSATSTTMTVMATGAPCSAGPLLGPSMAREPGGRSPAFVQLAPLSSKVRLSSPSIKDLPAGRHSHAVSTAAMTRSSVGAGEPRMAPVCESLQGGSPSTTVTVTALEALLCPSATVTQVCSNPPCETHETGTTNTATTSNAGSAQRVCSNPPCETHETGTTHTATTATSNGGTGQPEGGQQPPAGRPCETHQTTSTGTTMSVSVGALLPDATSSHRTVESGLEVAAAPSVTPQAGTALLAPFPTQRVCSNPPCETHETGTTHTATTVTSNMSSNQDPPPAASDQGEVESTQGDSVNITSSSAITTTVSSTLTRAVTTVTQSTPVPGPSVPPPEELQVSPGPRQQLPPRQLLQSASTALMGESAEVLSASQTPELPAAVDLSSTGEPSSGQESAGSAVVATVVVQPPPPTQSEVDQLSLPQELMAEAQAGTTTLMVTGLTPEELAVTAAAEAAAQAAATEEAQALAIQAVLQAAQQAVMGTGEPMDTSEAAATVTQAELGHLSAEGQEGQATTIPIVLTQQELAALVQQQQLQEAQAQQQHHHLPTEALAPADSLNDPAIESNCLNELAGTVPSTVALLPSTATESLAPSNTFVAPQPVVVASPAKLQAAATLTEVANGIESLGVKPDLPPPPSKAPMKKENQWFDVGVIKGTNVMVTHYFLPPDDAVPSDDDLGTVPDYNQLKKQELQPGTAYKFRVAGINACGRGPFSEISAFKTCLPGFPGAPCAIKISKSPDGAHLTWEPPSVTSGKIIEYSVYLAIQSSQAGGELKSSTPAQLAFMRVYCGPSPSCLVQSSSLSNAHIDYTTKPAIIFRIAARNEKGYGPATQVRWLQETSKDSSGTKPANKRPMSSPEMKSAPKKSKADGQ

GST-VP16 with insect extract, no Oct-1 POU, sequence (P06492 5-411, one chain of several): as the sequence (P06492 5-411, chain 2 of 3) above

B1: (Octa+)… ICP0 IE element (dsDNA)
DNA 1: ATGCTAATGATAT
DNA 2: ATATCATTAGCAT
binding result [1]: no binding | binding result [2]: binds
